Source: patent US10941197 (dated 2021)
Changes are numbered by the printed parent chain. Each block holds one binder with its values, some of them ahead of it.

Experiments:
[1] = molecular target: T1, human OSM (human); assay: SPR
T1 chain: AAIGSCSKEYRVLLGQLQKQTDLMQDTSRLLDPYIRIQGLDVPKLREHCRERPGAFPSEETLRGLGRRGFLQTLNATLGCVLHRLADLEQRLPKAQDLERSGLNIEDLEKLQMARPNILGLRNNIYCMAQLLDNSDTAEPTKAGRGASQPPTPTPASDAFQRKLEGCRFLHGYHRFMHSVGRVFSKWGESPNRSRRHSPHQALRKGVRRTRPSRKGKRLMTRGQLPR

[2] = molecular target: T2, cyno OSM (cynomolgus); assay: SPR
T2 chain: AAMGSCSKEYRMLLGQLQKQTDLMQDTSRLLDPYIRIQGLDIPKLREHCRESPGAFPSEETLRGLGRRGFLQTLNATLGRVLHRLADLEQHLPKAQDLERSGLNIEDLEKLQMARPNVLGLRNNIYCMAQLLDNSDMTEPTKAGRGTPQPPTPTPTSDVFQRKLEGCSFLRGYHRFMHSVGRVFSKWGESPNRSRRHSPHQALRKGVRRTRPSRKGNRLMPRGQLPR

Kd [1]: 105 pM | Kd [2]: 108 pM
B1: M71 (designed binder)
chain 1: EVQLVQSGAEVKKPGESLKISCKGSGYSFTSYWISWVRQMPGKGLEWMGIIYPGDSYTRYSPSFQGQVTISADKSISTAYLQWSSLKASDTAMYYCARVPVSPAYLDY
chain 2: not shown

Kd [1]: 484 pM | Kd [2]: 516 pM
B2: M42 (designed binder)
chain 1: B1 chain 1 with V99G, P100S, S102F, P103E, L106F
chain 2: not shown

Kd [1]: 45 pM | Kd [2]: 62 pM
B3: M69 (designed binder)
chain 1: B1 chain 1
chain 2: not shown

Kd [1]: 53 pM | Kd [2]: 57 pM
B4: M54 (designed binder)
chain 1: B1 chain 1 with V99G, P100S, S102F, P103E, L106F
chain 2: not shown

Kd [1]: 54 pM | Kd [2]: 58 pM
B5: M55 (designed binder)
chain 1: B1 chain 1 with V99G, P100S, S102F, P103E, L106F
chain 2: not shown

Kd [1]: 95 pM | Kd [2]: 23 pM
B6: M64 (designed binder)
chain 1: B1 chain 1
chain 2: not shown
